Measured values as given in a protein production outcome set (Wang et al. 2014).

assay: label from the status in PepcDB records
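Further: failed if final PepcDB status was selected cloned or expressed and not failed if soluble or beyond.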

| Sequence | protein production |
| --- | --- |
| SEQSSPGFRQTHLQDLSEATQDVKEENHYLTPRSVLLELDNIIASSDSGESIETDGPDQVSGRIECHYEPMESYFFKETSHESVDSSKEEPQTLPETQDGDLHLQEQGSGIDWCLSPADVEAQTTNDQKGSASLTVVQLSILINNIPDESQVEKLNVFLSPPDVINYLALTEATGRICVSQWEGPRRLGCIFCHGDHLLAVNDLKPQSLEEVSLFLTRSIQKEKLKLTIGRIPNSETFHAASCMCPSKCQSAAPSQLDKPRLNRAPKRSPAIKKSQQKGARE | not failed |
| SGARRQALIDAQSWRLRYERIMREVGVATVEYEAASGRATWGMGAGKVLGEDVARISSLDEWLEHIAPDERGLVEATWSSVASGETWASEQSYTLMRTDGEPLRVRERLACVRGADDSVEMVVGMLRPEPLESGDG | failed |
| SGCRCCKIIQSYLFDPVQVPSPGYVNEVNSCKLDEDDTDKLKGKWSSEVLVQKNDPQRQGSKKTESSSRTADPWEPCWPHQGPLPQGDAGGEHHACGVNGIGPAATPQPTGNSSPTQDDRGSWASTANTVPPTQPFLEGGGTRKQDCVLLASEGTQVMRNGDSRAPSEAESFALEVQDHVFQIPAPDYLQHWGPAGDNVDHNEKDCVFKNHTEDESLEGIQPPVGEHGLNTPFSVRRSWDSLNEDVETEVLSICFNEKGPVHAMPVVDSGNRQEDTHGSDGDGDGEIVDEDAAVAEALAALEAATAGEDLDETD | not failed |
| SGFRKMAFPSGKVEGCMVQVTCGTTTLNGLWLDDTVYCPRHVICTAEDMLNPNYEDLLIRKSNHSFLVQAGNVQLRVIGHSMQNCLLRLKVDTSNPKTPKYKFVRIQPGQTFSVLACYNGSPSGVYQCAMRPNHTIKGSFLNGSCGSVGFNIDYDCVSFCYMHHMELPTGVHAGTDLEGKFYGPFVDRQTAQAAGTDTTITLNVLAWLYAAVINGDRWFLNRFTTTLNDFNLVAMKYNYEPLTQDHVDILGPLSAQTGIAVLDMCAALKELLQNGMNGRTILGSTILEDEFTPFDVVRQCSGVTFQ | not failed |
| SGIIKMAIRFDRRAYPPQITPKMCLLEWCRREKLPQPVYETVQRTIDRMFCSVVTVAEQKYQSTLWDKSKKLAEQTAAIVCLRSQGLPEGRLGEESPSLNKRKREAPDQDPGGPR | not failed |
| SGSSMEEKVVAVIMVGGPTKGTRFRPLSLNIPKPLFPIAGQPMVHHPISACKRIPNLAQIYLVGFYEEREFALYVSAISNELKVPVRYLREDKPHGSAGGLYHFRNLIMEDSPSHIFLLNCDVCCSFPLPKMLEAHRGYGGIGTLLVIKVSPESASQFGELVADPVTNELLHYTEKPETFVSDRINCGVYVFTPEIFNAIGDVSTQRKDRATLKRVSSFEALQPATRIPTDFVRLDQDILSPLAGKKRLYTYETMDFWEQIKSPGMSLRCSGLYLSQFRLTSPQLLASGDGTRSAIVIGDVYIHPSAKVHPTAKIGPNVSISANARVGPGVRLMSCIILDDVEIMENAVVTNAIVGWKSSIGRWSRVQAEGVYNSKLGVTILGDSVAVEDEVAVTSSIVLPNKTLNVSVQDEIIL | failed |
| SHMEIVPDTSVVIDGRVSDQVKADADPDTDVDGMGFAGATVVVPEAVVGELEAQANDGRETGWEGLEELQTLVDLAEEGTIDVEYVGRRPDAIEKREAGEGQIDALIRDIAGDRDATLVTSDDVQAEVARAKGLAVEFVDPVKRTVDRLQI | not failed |
| SHPCFVQGRPELLSQIKRKQSARTVEDKQVNEQTQQNLEVVMAEMRAMREKAKNMEDKMNKLTKENRDMWTQMGSMRQQHARQQQYFKKLLHFLVSVMQPGLSKRVAKRGVLEIDFCAANGTAGPNSKRARMNSEEGPYKDVCDLLESLQRETQEPFSRRFTNNEGPLISEVTDEFGNSPVGRGSAQDLFGDTFGAQSSRYSDGGATSSREQSPHPIISQPQSNSAGAHGANEQKPDDMYMGSGPLTHENIHRGISALKRDYQGASPASGGPSTSSSAPSGAGAGARMAQKRAAPYKNATRQMAQPQQDYSGGFVNNYSGFMPSDPSMIPYQPSHQYLQPHQKLMAIEDQHHPTTSTSSTNADPHQNLYSPTLGLSPSFDRQLSQELQEYFTGTDTSLESFRDLVSNHNWDDFGNNVPLDDDEEGSEDPLRQLALENAPETSNYDGAEDLLFDNEQQYPENGFDVPDPNYLPLADEEIFPHSPALRTPSPSDPNLV | not failed |
| SINKVLDHFRRKGINQHVQNGYHGIVMNNFECEPAFYTCVEVTAGNRLFYHIVDSDEVSTKILMEFNKMNLPGEVTFLPLNKLDVRDTAYPETNDAIPMISKLRYNPRFDKAFKHVFGKTLICRSMEVSTQLARAFTMDCITLEGDQVSHRGALTGGYYDTRKSRLELQKDVRKAEEELGELEA | failed |
| SKVEVIYKELGKQHRFSFKGQIFFVSIDSMMEKIDFNIEDSVIVLNFDHAHLWDDSAVNAIDTIVRKFEEKNNVVYVEKLNADSRKIISELSYLNETHL | failed |
| SKVWKYFGFDTNAEGCILQWKKIYCRICMAQIAYSGNTSNLSYHLEKNHPEEFCEFVKSN | not failed |
| SLDDDDYPAYTMGRAAAILGTTPAFLRALGDARLITPLRSEGGHRRYSRYQLRIAARARELVDQGTPVEAACRIIILEDQLEDALRLNEEMRRSSDQPTA | failed |
| SLGSLPPAAMESMESLRLKDKNEPVQNLPIQKSIDDVDSKLKGIGKPRKFSKFSLYKQLHRHHLHDADSISSIDSTSSYFNHYRSHHNLIHGLKPHFKLFHPSS | failed |
| SLKKNPRDIVTKKANIRIKTALSKMFNAMAKVTYDIDEADGDVIVNTAFIDKKYLDEAFDILKEAYKKGLGISDRFGIVEENDRIKIQTICAVTLDGIFLRNSVPLIPKYGGILEITEDKERFIDIIGYDGSSLDPHEVFFNFVDCEKTFLAGFREVHRVAREKLEEVLKKLNWNGIKAIGEPNNELYGIGVNKDMCGVVTMGGINPLVLLKENEIPIELKAMHEVVRFSDLKSYKEI | not failed |
| SLKKVITVNEWYTTTVAATMLGRRPTDEDAILVSAPATSRPNVRIKAVFDGHAGEATSQYCAKHAAKHLGKLSEFTFAEVKKACLSLDAEIIRKLGPKHVAGSTGIIVAIERLSAPVVENVVGREIVPRAHEETFVPLEKLIQEEEEAEHPELVGRYPRVPDVQQKTIPAGSFLVTAINIGDSRATLIHSDGGLTRLSKDHKPNHPTEASRIEKAGGSVETFDVPRVDGVLALSRAFGDSDFKMNPNLPPEEQKVIAVPDVRQFYALSSDLLLLACDGVYEPSGMDWAYVRDLTVAEMQRSKGDLEEVAARVMDYAYDMNSQDNISVMLVAFHNQEVEHPTAVYKVVSGQVDKVEWDVAGKKGN | not failed |
| SLLDVAVSPDDRFILTADRDEKIRVSWAAAPHSIESFCLGHTEFVSRISVVPTQPGLLLSSSGDGTLRLWEYRSGRQLHCCHLASLQELVDPQAPQKFAASRIAFWCQENCVALLCDGTSVVYIFQLDARRQQLVYRQQLAFQHQVWDVAFEETQGLWVLQDCQEAPLVLYRPVGDQWQSVPESTVLKKVSGVLRGNWAMLEGSAGADASFSSLYKATFDNVTSYLKKKEERLQQQLEKKQRRRSPPPGPDGHAKKMRPGEATLSC | failed |
| SLLSYQHGYHAGNFADVIKHITLTRLLAYLTHKDKPLFYLETHSGRGIYDLKDKQSLKTEEYKEGINPVWLDRENLPSLFLEYISVIKQINLNSTLSYYPGSPYFAINQLRSQDRLYLCELHPTEYNFLLKLPHFNKKVYVNHTDGVSKLNALLPPPEKRGLIFIDPSYERKEEYKEIPYAIKNAYSKFSTGLYCVWYPVVNKAWTEQFLRKMREISSKSVRIELHLNPLINEGMTGCGLWIINPPYTFPSEIKLVLETLTTYFNPGSSSYMIESGSKLCHGL | not failed |
| SLPMQHVHTSPVRDYRNRCARREGETVFQVVVEETDLRVTALAELATPMAAYVGELRAQLKVWMEFQPAFRHSLVPVEVPEGAPEVVRRMAHGARLVGVGPFAAVAGTIAQMVAERFVDVSPELIVENGGDLYLYSERDRVVGILPDPASGDMVGILVRAGTAPVSLCGSSARIGHSLSLGDGDLAVVRARDASLADAAATAFGNMLRRADDVAAVTERAAQLASIGIEGVYAQCGGRIGIWGDMELAVA | not failed |
| SLRLHAGVWGLKVRYEGSFEVSKTPEEVFEFLTDPKRFSRAFPGFKSVEVEDGSFTIELRLSLGPLRGDARVRASFEDLEKPSKATVKGSGRGAGSTLDFTLRFAVEPSGGGSRVSWVFEGNVGGLAASMGGRVLDSLARRMINDVISGVKRELGEA | not failed |
| SLRPPLPPATPQEVQFVQHMLQHHAQALDLAAPMLERSQQRTVRSLALDIQLSQREQMRQMEAMLGRWGQPPGEPISPEHARMMGMASEAEVAGLSTLPVEQAERQFLRLMIRHHQGAVAMTLPMLDAAARPEVERLARQIVVTQRGEIRTMEGVLGRLDGEVPAAPMRPVEHGHGH | not failed |
| SMLSRAKPAVGGESPHTDKRKKKGRKIPKLEDLLSQRDFTGAITLLEFKRHVGEQEDDTNLWIGYCAFHLGDYKRALEEYENATKEENCNPEVWVNLACTYFFLGMYKQAEAAGFKAPKSRLQNRLLFHLAHKFNDEKKLMNFHQNLQDIKEDQLSLASNSEIHLPLPPECWD | failed |
| SNKLYIGNLSPAVTADDLRQLFGDRKLPLAGQVLLKSGYAFVDYPDQNWAIRAIETLSGKVELHGKIMEVDYSVSKKLRSRKIQIRNIPPHLQWEVLDGLLAQYGTVENVEQVNTDTETAVVNVTYATREEAKIAMEKLSGHQFENYSFKISYIPDEEVSSPSPPQRAQRGDHSSREQGHAPGGTSQARQIDFPLRILVPTQFVGAIIGKEGLTIKNITKQTQSRVDIHRKENSGAAEKPVTIHATPEGTSEACRMILEIMQKEADETKLAEEIPLKILAHNGLVGRLIGKEGRNLKKIEHETGTKITISSLQDLSIYNPERTITVKGTVEACASAEIEIMKKLREAFENDMLAVNQQANLIPGLNLSALGIFSTGLSVLSPPAGPRGAPPAAPYHPFTTHSGYFSSLYPHHQFGPFPHHHSYPEQEIVNLFIPTQAVGAIIGKKGAHIKQLARFAGASIKIAPAEGPDVSERMVIITGPPEAQFKAQGRIFGKLKEENFFNPKEEVKLEAHIRVPSSTAGRVIGKGGKTVNELQNLTSAEVIVPRDQTPDENEEVIVRIIGHFFASQTAQRKIREIVQQVKQQEQKYPQGVASQRSK | not failed |
| SNSALYNVDAGHRAVIFDRFRGVQDIVVGEGTHFLIPWVQKPIIFDCRSRPRNVPVITGSKDLQNVNITLRILFRPVASQLPRIYTSIGEDYDERVLPSITTEILKSVVARFDAGELITQRELVSRQVSDDLTERAATFGLILDDVSLTHLTFGKEFTEAVEAKQVAQQEAERARFVVEKAEQQKKAAIISAEGDSKAAELIANSLATAGDGLIELRKLEAAEDIAYQLSRSRNITYLPAGQSVLLQLPQ | not failed |
| SPAYQEDREEDTCTIGEREKTIATQRIKGFGVENPVLPESPPASMSSVMKNNPLYGDITLEEAMEERKKSPSWTIEEYDKHSVHTNLSGHLKENPNDLRFWLGDTYTPGFDTLLKKKKKRNKRSKLCHMGLILLLVASILVTIVTLSTIFS | failed |
| SPFDTGPELESQIRNQYGVDVHVVPVLDTLNEAETLDRVAMQAARTIGPLVDSNAIIGVAWGATLSAVSRHLTRKMTHDSIVVQLNGAGNMQTTGITYASDIMRRFGSAYGARVEQFPVPAFFDHASTKTAMWNERSVQRILDLQARMSIAIFGVGSVDSDYPSHVYAGGYLDEHDLTMLAADDVVGDVATVFFRSDGSSDGITLNERSTGPSHEQLRQVRRRICVVSGASKINGLQGALAAGLATDLILDEASARRLVSFNGH | not failed |
| SQEANYGALLRELCLTQFQVDMEAVGETLWCDWGRTIRSYRELADCTWHMAEKLGCFWPNAEVDRFFLAVHGRYFRSCPISGRAVRDPPGSILYPFIVVPITVTLLVTALVVWQSKRTEGIV | failed |
| SQEQAQTTDWRATLKTIRNGVHKIDTYLNAALDLLGGEDGLCQYKCSDGSKPFPRYGYKPSPPNGCGSPLFGVHLNIGIPSLTKCCNQHDRCYETCGKSKNDCDEEFQYCLSKICRDVQKTLGLTQHVQACETTVELLFDSVIHLGCKPYLDSQRAACRCHYEEKTDL | not failed |
